Experimental findings from US20100021477A1 (Janssen / Centocor, published 2010) are described below.

Assay [1] has as its target T1, Hen-Egg White Lysozyme (HEL) (hen, UniProt P00698 19-147). As to the kind of experiment: BIAcore.
For assay [2], the target named is T2, Bovine Serum Albumin (BSA) (bovine, UniProt P02769 25-607). Put plainly: BIAcore, BSA on the chip (40 RU).
Assay [3] deals with T2, Bovine Serum Albumin (BSA). Put plainly: BIAcore, BSA on the chip (40 RU), purified Fab; apparent KD.
Assay [4] deals with T2, Bovine Serum Albumin (BSA). As to the kind of experiment: BIAcore, BSA on the chip (40 RU), purified Fab.
Assay [5] has as its target T1, Hen-Egg White Lysozyme (HEL). Put plainly: BIAcore, lysozyme on the chip (10 RU), purified Fab.
Assay [6] has as its target T2, Bovine Serum Albumin (BSA). Put plainly: BIAcore.
For assay [7], the target named is T1, Hen-Egg White Lysozyme (HEL). As to the kind of experiment: BIAcore, lysozyme on the chip (10 RU), purified Fab; apparent KD.

T2 sequence (P02769 25-607 limits assumed): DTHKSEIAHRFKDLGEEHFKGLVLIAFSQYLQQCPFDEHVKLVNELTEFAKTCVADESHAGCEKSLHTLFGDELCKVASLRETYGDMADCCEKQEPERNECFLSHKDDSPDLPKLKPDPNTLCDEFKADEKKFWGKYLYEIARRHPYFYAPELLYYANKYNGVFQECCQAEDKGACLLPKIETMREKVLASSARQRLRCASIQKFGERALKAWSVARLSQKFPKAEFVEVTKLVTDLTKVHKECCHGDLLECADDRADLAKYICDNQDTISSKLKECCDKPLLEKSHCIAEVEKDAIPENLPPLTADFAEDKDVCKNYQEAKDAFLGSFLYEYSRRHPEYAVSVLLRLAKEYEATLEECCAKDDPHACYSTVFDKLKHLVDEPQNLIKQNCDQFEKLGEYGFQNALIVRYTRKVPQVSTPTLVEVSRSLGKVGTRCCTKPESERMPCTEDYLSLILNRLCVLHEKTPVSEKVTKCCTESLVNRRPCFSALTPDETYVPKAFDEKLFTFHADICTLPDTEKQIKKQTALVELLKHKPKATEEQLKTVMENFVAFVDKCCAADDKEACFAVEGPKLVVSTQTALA
T1 sequence (P00698 19-147 limits assumed): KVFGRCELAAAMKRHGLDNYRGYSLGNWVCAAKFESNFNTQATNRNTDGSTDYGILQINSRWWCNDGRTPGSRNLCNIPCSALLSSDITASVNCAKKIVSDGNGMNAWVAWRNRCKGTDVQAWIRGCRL

B1: Fab C6 (Fab, V domains shown)
VH: QVQLVQSGAEVKKPGSSVKVSCKASGGTFSSYGISWVRQAPGQGLEWMGGIIPIFGTANYAQKFQGRVTITADESTSTAYMELSSLRSEDTAVYYCARLCVSPAWDQCFDYWGQGTLVTVSS
VL: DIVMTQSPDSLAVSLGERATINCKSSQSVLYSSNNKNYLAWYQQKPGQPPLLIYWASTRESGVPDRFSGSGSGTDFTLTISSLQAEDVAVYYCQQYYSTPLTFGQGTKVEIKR
notes: also called C6 (Hc/Lc)
As to B1, the binding result in assay [1] and in assay [2] was “no binding” in each case.

B2: Fab F4 (Fab, V domains shown)
VH: QVQLVQSGAEVKKPGSSVKVSCKASGGTFSSYGISWVRQAPGQGLEWMGGIIPIFGTANYAQKFQGRVTITADESTSTAYMELSSLRSEDTAVYYCARDFGVYTWLGQTFDYWGQGTLVTVSS
VL: not shown
notes: also called F4 (Hc/Lc)
With B2, the Kd in assay [3] turned out to be 9 nM. The binding result in assay [1] was “no binding”. In assay [4], this molecule showed a koff of 0.00048 s⁻¹ and a kon of 51000 M⁻¹ s⁻¹.

B3: Fab D11 (Fab, V domains shown)
VH: QVQLVQSGAEVKKPGSSVKVSCKASGGTFSSYAISWVRQAPGQGLEWMGGIIPIFGTANYAQKFQGRVTITADESTSTAYMELSSLRSEDTAVYYCARIRWGGWFRGYLDYWGQGTLVTVSS
VL: not shown
notes: also called D11(Hc/Lc)
Take B3: the binding result in assay [1] was “no binding”.

B4: Fab D6 (Fab, V domains shown)
VH: QVQLVQSGAEVKKPGSSVKVSCKASGGTFSSYAISWVRQAPGQGLEWMGGIIPIFGTANYAQKFQGRVTITADESTSTAYMELSSLRSEDTAVYYCARGIIGINLVVLDYWGQGTLVTVSS
VL: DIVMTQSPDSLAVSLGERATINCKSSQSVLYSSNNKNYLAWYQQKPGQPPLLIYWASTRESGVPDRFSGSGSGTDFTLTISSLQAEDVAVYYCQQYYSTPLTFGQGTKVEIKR
notes: also called D6 (Hc/Lc)
As to B4, in assay [3], the Kd was 4 nM. For the same molecule, in assay [1], the binding result was “no binding”. In addition, in assay [4], the koff was 0.00195 s⁻¹ and the kon is 572000 M⁻¹ s⁻¹.

B5: Fab F6 (Fab, V domains shown)
VH: QVQLVQSGAEVKKPGSSVKVSCKASGGTFSSYAISWVRQAPGQGLEWMGGIIPIFGTANYAQKFQGRVTITADESTSTAYMELSSLRSEDTAVYYCARGIIGTITYVFDYWGQGTLVTVSS
VL: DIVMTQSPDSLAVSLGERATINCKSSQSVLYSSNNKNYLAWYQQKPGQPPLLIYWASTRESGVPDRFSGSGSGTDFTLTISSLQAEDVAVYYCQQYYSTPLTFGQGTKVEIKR
notes: also called F6 (Hc/Lc)
As to B5, the Kd in assay [3] is 26 nM. Also, the binding result in assay [1] is recorded as “no binding”. In assay [4], this molecule registered a koff of 0.0113 s⁻¹ and a kon of 430000 M⁻¹ s⁻¹.

B6: Fab C2 (Fab, V domains shown)
VH: QVQLVQSGAEVKKPGSSVKVSCKASGGTFSSYAISWVRQAPGQGLEWMGGIIPINGNANYAQKFQGRVTITADESTSTAYMELSSLRSEDTAVYYCARRAGMRVQTYYFFDYWGQGTLVTVSS
VL: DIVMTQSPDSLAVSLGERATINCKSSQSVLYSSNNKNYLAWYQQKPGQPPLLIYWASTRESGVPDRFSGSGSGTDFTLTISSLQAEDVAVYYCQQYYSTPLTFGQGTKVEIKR
notes: also called C2 (Hc/Lc)
For B6, the Kd in assay [3] came to 28 nM. Further, the binding result in assay [1] is reported as “no binding”. In assay [4], the koff was 0.00169 s⁻¹ and the kon came out at 60000 M⁻¹ s⁻¹.

B7: Fab E7 (Fab, V domains shown)
VH: QVQLVQSGAEVKKPGSSVKVSCKASGGTFSSYAISWVRQAPGQGLEWMGGIIPIFGTANYAQKFQGRVTITADESTSTAYMELSSLRSEDTAVYYCAREGGEVYDWEYYLDYWGQGTLVTVSS
VL: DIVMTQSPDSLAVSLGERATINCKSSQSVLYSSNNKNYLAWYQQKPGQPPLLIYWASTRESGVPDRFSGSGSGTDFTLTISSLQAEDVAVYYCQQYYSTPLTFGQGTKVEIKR
notes: also called E7 (Hc/Lc)
In assay [5], B7 showed a koff of 0.12 s⁻¹ and a kon of 460000 M⁻¹ s⁻¹. In addition, the binding result in assay [6] was “no binding”. For the same molecule, the Kd in assay [7] is 260 nM.

B8: Fab E5 (Fab, V domains shown)
VH: QVQLVQSGAEVKKPGSSVKVSCKASGGTFSSYAISWVRQAPGQGLEWMGWIIPYNGNANYAQKFQGRVTITADESTSTAYMELSSLRSEDTAVYYCARHTPVRDLDYWGQGTLVTVSS
VL: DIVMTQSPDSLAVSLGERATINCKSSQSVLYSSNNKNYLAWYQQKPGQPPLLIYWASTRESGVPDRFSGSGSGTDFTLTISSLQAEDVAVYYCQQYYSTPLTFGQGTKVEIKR
notes: also called E5 (Hc/Lc)
Take B8: in assay [5], the koff turned out to be 0.00233 s⁻¹ and the kon came to 227000 M⁻¹ s⁻¹. Also, the binding result in assay [6] is on record as “no binding”. The Kd in assay [7] was 10 nM.
